According to paper PMC4868535, “A G-protein activation cascade from Arl13B to Arl3 and implications for ciliary targeting of lipidated proteins” (eLife, 2015):
Each block holds one binder with its values, some of them ahead of it.

Biological target: CrArl3 (Chlamydomonas reinhardtii)

B1: CrArl13B H154W (18-278) (domain or fragment)
chain: RKITIALLGLDNAGKTTLLNSIQGEVDRDTTPTFGFNSTTLNEGKYKIEVFDLGGGKNIRGVWKKYLAEVHAIVYVVDAADPGRFEESKMTMAEVLENQFMRDKPICIFANKQDLPTAAPAAEVVKGLGLATCRNSWNVFPCTAKMPAGQDVDHRLRDGLKWLVGTVDREFGRLDPRVQTEAEEVRQEEARKKKEREERLRKQREERLRQQKEEEERAREVEKENELHDGKAPSLLAAGGGVVGAAAAGVNGVMVDEQQEL
- Kobs of nucleotide release from CrArl3 wt·mantGppNHp with 5 µM CrArl13B H154W (GEF assay): 0.0088 s⁻¹

B4: CrArl13B △213 (18–212) (domain or fragment)
chain: RKITIALLGLDNAGKTTLLNSIQGEVDRDTTPTFGFNSTTLNEGKYKIEVFDLGGGKNIRGVWKKYLAEVHAIVYVVDAADPGRFEESKMTMAEVLENQFMRDKPICIFANKQDLPTAAPAAEVVKGLGLATCRNSHNVFPCTAKMPAGQDVDHRLRDGLKWLVGTVDREFGRLDPRVQTEAEEVRQEEARKKKE
- Kobs of nucleotide release from CrArl3 wt with 5 µM CrArl13B △213 (GEF assay, deletion constructs): 0.0001 s⁻¹

B6: CrArl13B △220 (18–219) (domain or fragment)
chain: RKITIALLGLDNAGKTTLLNSIQGEVDRDTTPTFGFNSTTLNEGKYKIEVFDLGGGKNIRGVWKKYLAEVHAIVYVVDAADPGRFEESKMTMAEVLENQFMRDKPICIFANKQDLPTAAPAAEVVKGLGLATCRNSHNVFPCTAKMPAGQDVDHRLRDGLKWLVGTVDREFGRLDPRVQTEAEEVRQEEARKKKEREERLRK
- Kobs of nucleotide release from CrArl3 wt with 5 µM CrArl13B △220 (GEF assay, deletion constructs): 0.0011 s⁻¹

Results, then the binder that gave them:

- Kobs of nucleotide release from 500 nM CrArl3·mantGppNHp with 5 µM CrArl13B F51A (GEF assay): 0.002 s⁻¹
B2: CrArl13B F51A (18-278) (domain or fragment)
chain: RKITIALLGLDNAGKTTLLNSIQGEVDRDTTPTAGFNSTTLNEGKYKIEVFDLGGGKNIRGVWKKYLAEVHAIVYVVDAADPGRFEESKMTMAEVLENQFMRDKPICIFANKQDLPTAAPAAEVVKGLGLATCRNSHNVFPCTAKMPAGQDVDHRLRDGLKWLVGTVDREFGRLDPRVQTEAEEVRQEEARKKKEREERLRKQREERLRQQKEEEERAREVEKENELHDGKAPSLLAAGGGVVGAAAAGVNGVMVDEQQEL

- Kobs of nucleotide release from 500 nM CrArl3·mantGppNHp with 5 µM CrArl13B Y83A (GEF assay): 0.0009 s⁻¹
B3: CrArl13B Y83A (18-278) (domain or fragment)
chain: RKITIALLGLDNAGKTTLLNSIQGEVDRDTTPTFGFNSTTLNEGKYKIEVFDLGGGKNIRGVWKKALAEVHAIVYVVDAADPGRFEESKMTMAEVLENQFMRDKPICIFANKQDLPTAAPAAEVVKGLGLATCRNSHNVFPCTAKMPAGQDVDHRLRDGLKWLVGTVDREFGRLDPRVQTEAEEVRQEEARKKKEREERLRKQREERLRQQKEEEERAREVEKENELHDGKAPSLLAAGGGVVGAAAAGVNGVMVDEQQEL

- Kobs of nucleotide release from CrArl3 wt with 5 µM CrArl13B △233 (GEF assay, deletion constructs): 0.005 s⁻¹
B5: CrArl13B △233 (18–232) (domain or fragment)
chain: RKITIALLGLDNAGKTTLLNSIQGEVDRDTTPTFGFNSTTLNEGKYKIEVFDLGGGKNIRGVWKKYLAEVHAIVYVVDAADPGRFEESKMTMAEVLENQFMRDKPICIFANKQDLPTAAPAAEVVKGLGLATCRNSHNVFPCTAKMPAGQDVDHRLRDGLKWLVGTVDREFGRLDPRVQTEAEEVRQEEARKKKEREERLRKQREERLRQQKEEE

- Kobs of nucleotide release from CrArl3 wt with 5 µM CrArl13B △203 (GEF assay, deletion constructs): 0.0001 s⁻¹
B7: CrArl13B △203 (18–202) (domain or fragment)
chain: RKITIALLGLDNAGKTTLLNSIQGEVDRDTTPTFGFNSTTLNEGKYKIEVFDLGGGKNIRGVWKKYLAEVHAIVYVVDAADPGRFEESKMTMAEVLENQFMRDKPICIFANKQDLPTAAPAAEVVKGLGLATCRNSHNVFPCTAKMPAGQDVDHRLRDGLKWLVGTVDREFGRLDPRVQTEAEEV

- Kobs of nucleotide release from CrArl3 wt with 5 µM CrArl13B △243 (GEF assay, deletion constructs): 0.0045 s⁻¹
B8: CrArl13B △243 (18–242) (domain or fragment)
chain: RKITIALLGLDNAGKTTLLNSIQGEVDRDTTPTFGFNSTTLNEGKYKIEVFDLGGGKNIRGVWKKYLAEVHAIVYVVDAADPGRFEESKMTMAEVLENQFMRDKPICIFANKQDLPTAAPAAEVVKGLGLATCRNSHNVFPCTAKMPAGQDVDHRLRDGLKWLVGTVDREFGRLDPRVQTEAEEVRQEEARKKKEREERLRKQREERLRQQKEEEERAREVEKEN
